Measurements published in patent publication US20240109962A1 (SPARX BIOSCIENCE, published 2024).
Substitutions are numbered along the chain they refer to. Like-named read-outs stand apart in the source and are kept apart here.

What was measured:
[1] = biological target: LILRB2 antigen of the ELISA of Table 5 (format not specified) (UniProt Q8N423 22-460, limits assumed); assay: ELISA, antibody titration
[2] = biological target: T1, human LILRB3 expressed on 293T cells (human, UniProt O75022 24-631); assay: cell ELISA on fixed 293T transfectants, antibody 2 µg/ml, OD490
T1 construct: whole, on cells
Experimental: (§1) The cells were then immobilized with glutaraldehyde in the presence of 5% defatted milk at room temperature for 2 hours. An anti-LILRB2 antibody (2 μg/ml) was added to each well and incubated at room temperature for 2 hours. An HRP-labelled goat anti-mouse secondary antibody was then added into each well and incubated at room temperature for one hour. An HRP substrate, o-phenylenediamine dihydrochloride (OPD) was then added to each well. The plate was incubated at room temperature for 15 min to allow color development and OD₄₉₀ values were determined.

[3] = biological target: T2, human LILRB1 expressed on 293T cells (human, UniProt Q8NHL6 24-650); assay: as above
T2 construct: whole, on cells
T2 sequence (Q8NHL6 24-650): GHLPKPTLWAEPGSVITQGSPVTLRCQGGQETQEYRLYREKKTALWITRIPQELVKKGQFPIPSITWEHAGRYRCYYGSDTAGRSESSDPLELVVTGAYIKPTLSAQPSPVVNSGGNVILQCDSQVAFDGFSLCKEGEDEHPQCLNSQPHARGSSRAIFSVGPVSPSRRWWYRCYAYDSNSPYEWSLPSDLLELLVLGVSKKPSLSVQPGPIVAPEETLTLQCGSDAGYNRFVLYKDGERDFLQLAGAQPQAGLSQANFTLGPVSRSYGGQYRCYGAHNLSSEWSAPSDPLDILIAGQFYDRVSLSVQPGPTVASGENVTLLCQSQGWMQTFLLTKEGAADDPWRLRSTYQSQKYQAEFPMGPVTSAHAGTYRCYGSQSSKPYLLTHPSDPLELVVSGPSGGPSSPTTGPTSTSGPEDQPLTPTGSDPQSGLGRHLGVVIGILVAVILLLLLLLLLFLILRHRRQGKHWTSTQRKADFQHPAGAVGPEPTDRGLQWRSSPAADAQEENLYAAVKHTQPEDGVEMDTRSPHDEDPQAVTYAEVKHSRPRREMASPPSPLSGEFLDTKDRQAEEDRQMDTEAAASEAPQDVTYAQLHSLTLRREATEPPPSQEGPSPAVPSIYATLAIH
Experimental: as §1

[4] = biological target: T3, His-tagged human LILRB2 polypeptide (human, UniProt Q8N423 22-460); assay: SPR, antibody on CM5 chip, His-LILRB2 analyte, 1:1 model
T3 construct: SPR analyte; also called His-tagged human LILBR2 polypeptide; not shown: His tag
T3 sequence (Q8N423 22-460 limits assumed): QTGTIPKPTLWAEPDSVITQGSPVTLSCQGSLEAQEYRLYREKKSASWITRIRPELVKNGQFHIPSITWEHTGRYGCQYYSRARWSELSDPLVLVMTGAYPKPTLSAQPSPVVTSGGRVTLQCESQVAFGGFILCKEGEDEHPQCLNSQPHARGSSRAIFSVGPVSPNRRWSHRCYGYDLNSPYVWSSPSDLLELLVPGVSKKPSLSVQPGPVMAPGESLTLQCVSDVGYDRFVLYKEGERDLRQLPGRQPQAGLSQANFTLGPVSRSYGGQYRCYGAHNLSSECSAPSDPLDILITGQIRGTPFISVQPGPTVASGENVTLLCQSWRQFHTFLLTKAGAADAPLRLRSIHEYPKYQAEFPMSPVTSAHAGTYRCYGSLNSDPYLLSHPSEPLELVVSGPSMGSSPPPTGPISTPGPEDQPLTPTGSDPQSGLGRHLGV
Experimental: Surface plasmon resonance (SPR) was used to examine binding activities of exemplary anti-LILBR2 antibodies disclosed herein. Briefly, the anti-LILBR2 antibody was diluted in a coating buffer to a concentration of 30 μg/ml, loaded onto CM5 chips at 10 μl/min to allow coating of the antibody on the surface of the CM5 chip. […] Binding affinity was measured based on the 1:1 binding model.

[5] = biological target: T4, human LILRB2 expressed on cells (293T-LILRB2, CHO-K1-LILRB2) (human, UniProt Q8N423 22-597); assay: flow cytometry, blockade of His-tagged HLA-G tetramer binding to 293T-LILRB2 cells; fit table under the graph
T4 construct: whole, on cells; the cell line is named under assay; also called HEK293T-LILRB2
T4 sequence (Q8N423 22-597): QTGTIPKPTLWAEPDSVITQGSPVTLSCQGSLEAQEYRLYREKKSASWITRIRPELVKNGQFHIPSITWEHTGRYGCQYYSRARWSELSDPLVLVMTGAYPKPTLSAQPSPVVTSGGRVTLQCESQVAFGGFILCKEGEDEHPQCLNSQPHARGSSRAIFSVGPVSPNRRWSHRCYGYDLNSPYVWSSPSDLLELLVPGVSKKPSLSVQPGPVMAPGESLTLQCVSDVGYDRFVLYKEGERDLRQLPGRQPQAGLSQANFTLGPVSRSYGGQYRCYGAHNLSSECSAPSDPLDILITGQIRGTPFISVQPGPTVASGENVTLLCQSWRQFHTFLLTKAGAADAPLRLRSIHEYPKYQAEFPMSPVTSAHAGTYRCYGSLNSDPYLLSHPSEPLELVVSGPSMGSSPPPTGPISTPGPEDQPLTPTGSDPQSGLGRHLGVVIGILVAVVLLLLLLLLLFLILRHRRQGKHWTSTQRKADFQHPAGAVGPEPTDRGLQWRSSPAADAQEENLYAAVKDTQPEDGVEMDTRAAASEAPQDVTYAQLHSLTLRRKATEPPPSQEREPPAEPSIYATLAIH
Experimental: (§2) Serial diluted humanized LILRB2 antibodies were then added to the mixture and incubated at room temperature for another 45 minutes. The binding of HLA-G/LILRB2 was detected afterwards using a secondary PE-labeled anti-His tag antibody via flow cytometry.

[6] = biological target: T4, human LILRB2 expressed on cells …; assay: as above; remark: listed apart in the source
Experimental: as §2

[7] = biological target: T4, human LILRB2 expressed on cells …; assay: flow cytometry, blockade of His-tagged HLA-A2 tetramer binding to 293T-LILRB2 cells; fit table under the graph
[8] = biological target: T4, human LILRB2 expressed on cells …; assay: flow cytometry on 293T-LILRB2 cells, serial dilution, APC anti-human IgG; fit table under the graph
Description: (§3) The cells were washed and then subject to flow cytometry to measure levels of fluorescent signals.

[9] = biological target: T4, human LILRB2 expressed on cells …; assay: flow cytometry, blockade of His-tagged HLA-A2 tetramer binding to 293T-LILRB2 cells
[10] = biological target: T4, human LILRB2 expressed on cells …; assay: flow cytometry on 293T-LILRB2 cells, serial dilution, APC anti-human IgG; fit table under the graph; remark: listed apart in the source
Description: as §3

[11] = biological target: T4, human LILRB2 expressed on cells …; assay: as above; remark: listed apart in the source
Description: as §3

[12] = biological target: T4, human LILRB2 expressed on cells …; assay: as above; remark: listed apart in the source
Description: as §3

[13] = biological target: T4, human LILRB2 expressed on cells …; assay: flow cytometry, blockade of His-tagged HLA-G tetramer binding to 293T-LILRB2 cells; fit table under the graph, row headed EC50
Experimental: as §2

[14] = biological target: T4, human LILRB2 expressed on cells …; assay: flow cytometry, blockade of His-tagged HLA-G tetramer binding to 293T-LILRB2 cells; fit table under the graph; remark: listed apart in the source
Experimental: as §2

[15] = biological target: T4, human LILRB2 expressed on cells …; assay: flow cytometry, His-HLA-A2 tetramer (competitor) bound to 293T-LILRB2 cells, relative to no antibody; design: concentration or dose not given beside the values
Experimental: Serial diluted h#2E1 antibodies were then added to the mixture and incubated at room temperature for another 45 minutes. […]

[16] = biological target: T5, recombinant human LILRB2 protein (human, UniProt Q8N423 22-460, limits assumed); assay: ELISA, coated recombinant human LILRB2; design: unit not given here
T5 construct: also called recombinant LILRB2 protein
T5 sequence (Q8N423 22-460 limits assumed): as the sequence (Q8N423 22-460 limits assumed) above
Experimental: This affinity maturation library was screened against human LILRB2 to identify antibodies having high binding affinity to LILRB2. Briefly, an ELISA plate was coated with 0.1 ug/well recombinant human LILRB2 protein. Serial diluted maturated h#2E1 antibodies were incubated in the LILRB2 coated plate for 2 hrs. The plate was washed and a secondary HRP-labeled anti-human IgG was then added to each well. After being incubated at room temperature for 1 hour, the colorimetric ELISA signals were developed by adding the TMB substrate and reaction was stopped by 1M H3PO4. Table 7 below provides binding activities of exemplary matured antibodies to recombinant LILRB2 protein.

[17] = biological target: T4, human LILRB2 expressed on cells …; assay: flow cytometry, 293T-LILRB2 cells
Description: The fluorescent signals were detected by flow cytometry.

Chain of LILRB2 antigen of the ELISA of Table 5 (format not specified) (Q8N423 22-460 limits assumed): as above

B1: Antibody 10D7 (antibody, V domains shown)
VH: EVKLVESGGGLVKPGGSLKLSCAASGFTFSSYGMSWVRQTPEKRLEWVATISGAFSYTYYPDSVKGRFTISRDNAKNNLYLQMSSLRSEDTAFYYCARHDNSLYYAMDYWGQGTSVTVSS
VL: NVQITQSPSYLAASPGETITINCRTSKSITKYLAWYQEQPGKTNKLLIYSGSTLQSGIPSRFSGSGSGTDFTLTISSLEPEDFAMYYCQQHNEYPWTFGGGTKLEIK
notes: Mouse hybridoma mAb purified from ascites
Kd [1]: 0.705 nM
binding result [2]: binds
binding result [3]: binds
Kd [4]: 0.317 nM
koff [4]: 0.000107 s⁻¹
kon [4]: 338000 M⁻¹ s⁻¹

B2: Antibody h#2E1 (antibody, V domains shown)
VH: EVQLVESGGGLVQPGGSLRLSCAVSGYSITSGYYWNWIRQAPGKGLEWVAYISYDGNNNYNPSLKNRFTISRDTSKNTFYLQMNSLRAEDTAVYYCAREESTMITTAWFAYWGQGTLVTVSS
VL: DIQMTQSPSSLSASVGDRVTITCRASENIYSNLAWYQQKPGKAPKLLIYGATNLASGVPSRFSGSGSGTDYTLTISSLQPEDFATYYCQHFWDTPYTFGQGTKVEIK
notes: Humanized variant of 11B12; detected with anti-human IgG
IC50 [5]: 0.361 nM
Span [5]: 8000 RFU
Span [6]: 11900 RFU
IC50 [7]: 0.787 nM
Kd [8]: 0.364 nM
IC50 (read off the curve) [9]: ~1 nM
Bmax [10]: 618000 RFU
Kd [10]: 0.377 nM
Bmax [11]: 647000 RFU
Kd [11]: 0.446 nM
Bmax [12]: 556000 RFU
Kd [12]: 0.162 nM
EC50 [13]: 0.163 nM
IC50 [14]: 0.813 nM

B3: Antibody 2E1_FC11 (antibody, V domains shown)
VH: B2 VH with N58I
VL: B2 VL with T94Y
notes: also called A16
IC50 [5]: 0.36 nM
Span [5]: 5700 RFU
IC50 [6]: 0.442 nM
Span [6]: 8620 RFU
IC50 [7]: 0.468 nM
% no Ab [15]: 50.7%
Bmax [16]: 1.37
IC50 [14]: 0.472 nM
Bmax [17]: 461000
